Source: patent US12559749B2, “Methods of rescuing stop codons via genetic reassignment with ACE-tRNA” (UNIVERSITY OF IOWA RESEARCH FOUNDATION, priority 2017, dated 2026)

System: CFTR W1282X
Experiment: CFTR W1282X rescue, western blot of B and C bands, HEK cells
Assay type: cell-based, human
Settings: co-expression with CFTR W1282X cDNA in HEK cells
Protocol: To assess is these novel tRNA could rescue CFTR channels harboring nonsense codons, they were co-expressed in mammalian HEK cells with a CFTR W1282X cDNA plasmid. The cellular preparations were analyzed by standard biochemical approaches via Western blot assessment of CFTR protein. […] Specifically, the “B” and “C” bands represent the full-length and fully mature, post-translationally proceeded CFTR protein at the cell surface, respectively. […] FIG. 9.
For expression in mammalian cells, the cDNA for the coding region and 200 base-pair of the 3′ untranslated region (UTR) of human CFTR was ligated into pcDNA3.1(+) (Promega, USA) using the KpnI and XbaI restriction enzymes. The G542tga and W1282tga mutations were introduced using QuickChange XL II (Stratagene, USA). For expression in Xenopus laevis oocytes, the cDNA for the coding region and 140 base-pair of the 5′ and 244 base-pair 3′ UTR of human CFTR was ligated into pGEM-HE (Promega, USA). Bothe the G542tga and W1282tga mutations were introduced using QuickChange XL II. The cDNA encoding the E. coli histidinol dehydrogenase was codon optimized for Mus musculus and synthesized (BioBasic Inc, Canada) with a c-terminal 8×His-Strep-tag (“8×His” disclosed as SEQ ID NO: 647) for protein purification from mammalian cells. The synthesized cDNA was ligated into pcDNA3.1(+) using EcoRI and XhoI restriction sites. […]

B1: Glychr19.trna2: top performing glycine ACE-tRNA UGA, SEQ ID NO: 53 (nucleic acid)
chain: GCGUUGGUGGUAUAGUGGUUAGCAUAGCUGCCUUCAAAGCAGUUGACCCGGGUUCGAUUCCCGGCCAACGCA
modifications: chemistry not given here
rescue of CFTR protein, B and C bands: robust populations of ‘B’ and ‘C’ CFTR immunopositive
